B1: GpH7-A5/GpH7-B3 variant K326_19Q/GpL16-k0 (antibody, human IgG1, kappa)
heavy 1: not shown
heavy 2: not shown
light: DIVMTQSPLSLPVTPGEPASISCQASESLVHSNRNTYLHWYLQKPGQSPQLLIYKVSNRFSGVPDRFSGSGSGTDFTLKISRVEAEDVGVYYCSQNTHVPPTFGQGTKVEIERTVAAPSVFIFPPSDEQLKSGTASVVCLLNNFYPREAKVQWKVDNALQSGNSQESVTEQDSKDSTYSLSSTLTLSKADYEKHKVYACEVTHQGLSSPVTKSFNRGEC
notes: heterodimerized antibody, mutation in one H chain only; also called K326_19Q He Ab
B2: GpH7-A5/GpH7-B3 variant K326_20W/GpL16-k0 (antibody, human IgG1, kappa)
heavy 1: not shown
heavy 2: not shown
light: DIVMTQSPLSLPVTPGEPASISCQASESLVHSNRNTYLHWYLQKPGQSPQLLIYKVSNRFSGVPDRFSGSGSGTDFTLKISRVEAEDVGVYYCSQNTHVPPTFGQGTKVEIERTVAAPSVFIFPPSDEQLKSGTASVVCLLNNFYPREAKVQWKVDNALQSGNSQESVTEQDSKDSTYSLSSTLTLSKADYEKHKVYACEVTHQGLSSPVTKSFNRGEC
notes: heterodimerized antibody, mutation in one H chain only; also called K326_20W He Ab
B3: GpH7-A5/GpH7-B3 variant K334_02A/GpL16-k0 (antibody, human IgG1, kappa)
heavy 1: not shown
heavy 2: not shown
light: DIVMTQSPLSLPVTPGEPASISCQASESLVHSNRNTYLHWYLQKPGQSPQLLIYKVSNRFSGVPDRFSGSGSGTDFTLKISRVEAEDVGVYYCSQNTHVPPTFGQGTKVEIERTVAAPSVFIFPPSDEQLKSGTASVVCLLNNFYPREAKVQWKVDNALQSGNSQESVTEQDSKDSTYSLSSTLTLSKADYEKHKVYACEVTHQGLSSPVTKSFNRGEC
notes: heterodimerized antibody, mutation in one H chain only; also called K334_02A He Ab
B4: GpH7-A5/GpH7-B3 variant K334_04F/GpL16-k0 (antibody, human IgG1, kappa)
heavy 1: not shown
heavy 2: not shown
light: DIVMTQSPLSLPVTPGEPASISCQASESLVHSNRNTYLHWYLQKPGQSPQLLIYKVSNRFSGVPDRFSGSGSGTDFTLKISRVEAEDVGVYYCSQNTHVPPTFGQGTKVEIERTVAAPSVFIFPPSDEQLKSGTASVVCLLNNFYPREAKVQWKVDNALQSGNSQESVTEQDSKDSTYSLSSTLTLSKADYEKHKVYACEVTHQGLSSPVTKSFNRGEC
notes: heterodimerized antibody, mutation in one H chain only; also called K334_04F He Ab
B5: GpH7-A5/GpH7-B3 variant K334_03V/GpL16-k0 (antibody, human IgG1, kappa)
heavy 1: not shown
heavy 2: not shown
light: DIVMTQSPLSLPVTPGEPASISCQASESLVHSNRNTYLHWYLQKPGQSPQLLIYKVSNRFSGVPDRFSGSGSGTDFTLKISRVEAEDVGVYYCSQNTHVPPTFGQGTKVEIERTVAAPSVFIFPPSDEQLKSGTASVVCLLNNFYPREAKVQWKVDNALQSGNSQESVTEQDSKDSTYSLSSTLTLSKADYEKHKVYACEVTHQGLSSPVTKSFNRGEC
notes: heterodimerized antibody, mutation in one H chain only; also called K334_03V He Ab
B6: GpH7-A5/GpH7-B3 variant K334_07I/GpL16-k0 (antibody, human IgG1, kappa)
heavy 1: not shown
heavy 2: not shown
light: DIVMTQSPLSLPVTPGEPASISCQASESLVHSNRNTYLHWYLQKPGQSPQLLIYKVSNRFSGVPDRFSGSGSGTDFTLKISRVEAEDVGVYYCSQNTHVPPTFGQGTKVEIERTVAAPSVFIFPPSDEQLKSGTASVVCLLNNFYPREAKVQWKVDNALQSGNSQESVTEQDSKDSTYSLSSTLTLSKADYEKHKVYACEVTHQGLSSPVTKSFNRGEC
notes: heterodimerized antibody, mutation in one H chain only; also called K334_07I He Ab
B7: GpH7-A5/GpH7-B3 variant K334_05P/GpL16-k0 (antibody, human IgG1, kappa)
heavy 1: not shown
heavy 2: not shown
light: DIVMTQSPLSLPVTPGEPASISCQASESLVHSNRNTYLHWYLQKPGQSPQLLIYKVSNRFSGVPDRFSGSGSGTDFTLKISRVEAEDVGVYYCSQNTHVPPTFGQGTKVEIERTVAAPSVFIFPPSDEQLKSGTASVVCLLNNFYPREAKVQWKVDNALQSGNSQESVTEQDSKDSTYSLSSTLTLSKADYEKHKVYACEVTHQGLSSPVTKSFNRGEC
notes: heterodimerized antibody, mutation in one H chain only; also called K334_05P He Ab
B8: GpH7-A5/GpH7-B3 variant K334_08L/GpL16-k0 (antibody, human IgG1, kappa)
heavy 1: not shown
heavy 2: not shown
light: DIVMTQSPLSLPVTPGEPASISCQASESLVHSNRNTYLHWYLQKPGQSPQLLIYKVSNRFSGVPDRFSGSGSGTDFTLKISRVEAEDVGVYYCSQNTHVPPTFGQGTKVEIERTVAAPSVFIFPPSDEQLKSGTASVVCLLNNFYPREAKVQWKVDNALQSGNSQESVTEQDSKDSTYSLSSTLTLSKADYEKHKVYACEVTHQGLSSPVTKSFNRGEC
notes: heterodimerized antibody, mutation in one H chain only; also called K334_08L He Ab

T1 sequence (P12314 16-292): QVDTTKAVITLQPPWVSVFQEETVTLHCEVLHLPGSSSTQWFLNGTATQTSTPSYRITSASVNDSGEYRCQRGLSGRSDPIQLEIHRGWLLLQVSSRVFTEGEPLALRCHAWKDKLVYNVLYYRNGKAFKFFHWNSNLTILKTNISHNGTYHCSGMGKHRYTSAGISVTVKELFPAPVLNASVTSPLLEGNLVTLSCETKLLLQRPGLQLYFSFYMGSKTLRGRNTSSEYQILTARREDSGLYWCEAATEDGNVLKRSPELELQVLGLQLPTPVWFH

This assay addresses T1, FcγRIa extracellular domain with C-terminal His tag (human, UniProt P12314 16-292).
T1 construct: extracellular domain; soluble analyte in Biacore; also called FcgRI; CD64
The experiment in a line: SPR (Biacore), relative FcγRIa binding, GpH7-A5/GpH7-B3/GpL16-k0 (HeCon Ab) = 100.
For B1, the He/Con_1a is 102 % of control.
The result for B2 reads 103 % of control; that for B3, 106 % of control; that for B4, 105 % of control.
Take B5: the He/Con_1a was 105 % of control.
With B6, the He/Con_1a was 104 % of control.
The result for B7 reads 104 % of control; that for B8, 105 % of control.

(Values after patent publication US20180155451A1 (published 2018).)
